Here are results for nine molecules from patent publication US11156615B2 (priority 2015, dated 2021).

Series [1] is described as follows: Glucose-dependent fluorescence emission intensity spectra of conjugates (Nanodrop3300). In kind it is biochemical. The conditions noted are these: for Type of fluorescence response to glucose: Nanodrop3300. The source says:
Semi-synthetic FRSs were engineered by site-specifically attaching thiol-reactive, environmentally sensitive fluorophores that respond to ligand-mediated conformational changes. Identification of FRS candidates that are useful for sensing applications comprises three steps: • 1. Cysteine scan. Mutant glucose-binding proteins containing single cysteines are constructed for site-specific attachment of thiol-reactive fluorophores. […] Candidate positions fall into three classes: endosteric, replacing a residue that contacts the ligand directly; peristeric, located at the rim of the binding site; allosteric (Marvin et al. 1997 Proc Natl Acad Sci USA, 94, 4366-71; Marvin 1998 J Am Chem Soc, 120, 7-11), located outside the binding site at sites that undergo local structural changes in concert with the hinge-bending motion. • 2. Fluorophore screening. Thiol-reactive, environmentally sensitive fluorophores are attached to each cysteine mutant prepared in step 1. • 3. Evaluation of the glucose-mediated change of all the fluorescent conjugates prepared in step 2. Responses to ligand binding in which there is both a change in fluorescence emission intensity and spectral shape was essential for chemometric applications, because such changes enable ratiometric measurements. Changes in spectral shape typically are accompanied by a shift in the wavelength of the emission intensity maxima. Three classes of fluorescent responses are possible: • i. No response. • ii. Monochromatic response (emission intensity increases or decreases without a change in spectral shape) • iii.

Series [2] can be described thus: Glucose binding: isothermal fluorescence titrations, ratiometric (appKd) and monochromatic (trueKd) fits. To be noted: room temperature. The source says:
2 For a single glucose-binding site, the fractional saturation is given by
[formula] where ^apoIλ2 and ^satIλ2 are the emission intensities of the monochromatic signal at wavelength λ2 of the ligand-free and ligand-bound protein, respectively.

A short description of series [3]: Thermostability: mid-point thermal denaturation temperature (Tm) from temperature-dependent fluorescence (Roche LightCycler). The conditions noted are these: Acrylodan conjugate; apo-protein. In kind it is physicochemical. An excerpt:
Protein (un)folding is monitored by binding of SYPRO to the unfolded state as a function of temperature. Fluorescence intensity increases upon binding of SYPRO by the unfolded state.
Panels A-C: ttGBP182C.2.0-Imm0; Panels D-F: ttGBP182C.2.0-Imm1 (see FIG. 13). (A) Solution (Tm=347.6K). (B) Immobilized on Nickel-nitriloacetic acid (Ni-NTA) beads (Tm=346.7K). (C) Reconstituted, desiccated Ni-NTA beads (Tm=347.6K). (D) Fluorescence response of ttGGBP5.2 Imm1 immobilized on NHS-functionalized agarose beads. Data was collected on a Roche LightCycler real-time PCS instrument, recording emission intensities at 488 nm and 510 nm as a function of temperature in a 384-well microtiter plate. […] Temperature melts of twelve different wells. Apo protein thermostability as reported by the denaturation mid-point temperature is 349 K, similar to the protein free in solution. […] (F) Representative Langmuir ligand-binding curve extracted from the three-dimensional data.
Temperatures were advanced in 1K steps. […] Under these experimental photobleaching was not observed.

Series [4] is described as follows: Galactose binding: isothermal fluorescence titrations of conjugates. Also on record: key to Galactose trueKd: nb, no bonding. The conditions noted are these: for S, selectivity = trueKd(galactose)/trueKd(glucose) / Kd: Acrylodan conjugate; for S, selectivity = trueKd(galactose)/trueKd(glucose): S > 1, selective for glucose; for Kd: read-out: Galactose trueKd.
Setting [5] is: read-out: Glucose appKd, Acrylodan conjugate, dichromatic ratiometry.
Setting [6] is: read-out: Glucose trueKd, Acrylodan conjugate, monochromatic titration curves.
The mark [7] stands for this setting: Acrylodan conjugate of ttGGBP.17C mutant.
Where [8] appears, read: monochromatic titration curves, room temperature.
The mark [9] stands for this setting: read-out: Glucose appKd, Badan conjugate, dichromatic ratiometry.
The mark [10] stands for this setting: read-out: Glucose trueKd, Badan conjugate, monochromatic titration curves.
[11] abbreviates: Badan conjugate of ttGGBP.17C mutant.

For the molecule “ecGGBP W183C⋅Acrylodan: Acrylodan attached to W183C mutant of E. coli GGBP (SEQ ID NO: 32)”, the “direction of emission wavelength shift upon glucose binding” value in series [1] (isochromic / hypsochromic / bathochromic) is on record as “bathochromic”.

Take W183C (Ec): the “Type of fluorescence response to glucose” value in series [1] (Acrylodan conjugate of ttGGBP or ecGGBP (Ec) cysteine mutant) is “r (b) (r (b), ratiometric (bathochromic shift))”.

B1: ttGGBP17C.9: affinity-tuning mutant, 17C background, SEQ ID NO: 74 (protein)
chain: MKQLNIGVAIYKFDDSCMTGVRNAMTAEAQGKAKLNMVDSQNSQPTQNDQVDLFITKKMNALAINPVDRTAAGTIIDKAKQANIPVVFFNREPLPEDMKKWDKVYYVGAKAEQSGILQGQIMADYWKAHPEADKNHDGVMQYVMLMGQPGHQDAILRTQYSIQTVKDAGIKVQELAKDYANWDRVTAHDKMAAWLSSFGDKIEAVFANNDDMALGAIEALKSAGYFTGNKYIPVVGVDATAPGIQAIKDGTLLGTVLNDAKNQAKATFNIAYELAQGITPTKDNIGYDITDGKYVWIPYKKITKDNISDAEQGGSHHHHHH
modifications: ttGGBP17C.9 (affinity-tuning mutant, 17C background (Table 6) with signal peptide replaced with M and GGSHHHHHH at C-terminus)
With B1, the Kd in series [2] (setting [5]) and in series [2] (setting [6]) was 0.2 mM in each case. The “Type of fluorescence response to glucose” value in series [1] (setting [7]) is listed as “r(h) (r(h), ratiometric (hypsochromic shift))”.

B2: ttGGBP182C.5: affinity-tuning mutant, 182C background, SEQ ID NO: 99 (protein)
chain: MKQLNIGVAIYKFDDTFMTGVRNAMTAEAQGKAKLNMVDSQNSQPTQNDQVDLFITKKMNALAINPVDPTAAGTIIDKAKQANIPVVFFNREPLPEDMKKWDKVYYVGAKAEQSGILQGQIMADYWKAHPEADKNHDGVMQYVMLMGQPGHPDAILRTQYSIQTVKDAGIKVQELAKDYANCDRVTAHDKMAAWLSSFGDKIEAVFANNDDMALGAIEALKSAGYFTGNKYIPVVGVDATAPGIQAIKDGTLLGTVLNDAKNQAKATFNIAYELAQGITPTKDNIGYDITDGKYVWIPYKKITKDNISDAEQGGSHHHHHH
modifications: ttGGBP182C.5 (affinity-tuning mutant, 182C background (Table 6) with signal peptide replaced with M and GGSHHHHHH at C-terminus)
In series [3], B2 registered an apoTm of 349 K. For the same molecule, the values for the Kd in series [2] (setting [5]), in series [2] (setting [6]) and in series [4] (setting [8]) were 7.5 mM, 8.8 mM and 7.4 mM, respectively. Further, the “S, selectivity = trueKd(galactose)/trueKd(glucose)” value in series [4] was found to be 0.8.

B3: ttGGBP17C.1: affinity-tuning mutant, 17C background, SEQ ID NO: 66 (protein)
chain: MKQLNIGVAIYKFDDTCMTGVRNAMTAEAQGKAKLNMVDSQNSQPTQNDQVDLFITKKMNALAINPVDRTAAGTIIDKAKQANIPVVFFNKEPLPEDMKKWDKVYYVGAKAEQSGILQGQIMADYWKAHPEADKNHDGVMQYVMLMGEPGHQDAILRTQYSIQTVKDAGIKVQELAKDYANWDRVTAHDKMAAWLSSFGDKIEAVFANNDDMALGAIEALKSAGYFTGNKYIPVVGVDATAPGIQAIKDGTLLGTVLNDAKNQAKATFNIAYELAQGITPTKDNIGYDITDGKYVWIPYKKITKDNISDAEQGGSHHHHHH
modifications: ttGGBP17C.1 (affinity-tuning mutant, 17C background (Table 6) with signal peptide replaced with M and GGSHHHHHH at C-terminus)
Take B3: the Kd was determined as 0.6 mM in series [2] (setting [9]) and 0.8 mM in series [2] (setting [10]). For the same molecule, the “Type of fluorescence response to glucose” value in series [1] (setting [7]) was “d (d, intensity decrease only)”; in series [1] (setting [11]), “r(h) (r(h), ratiometric (hypsochromic shift))”.

B4: ttGGBP182C.8: affinity-tuning mutant, 182C background, SEQ ID NO: 102 (protein)
chain: MKQLNIGVAIYKFDDTFMTGVRNAMTAEAQGKAKLNMVDSQNSQPTQNDQVDLFITKKMNALAINPVDRTAAGTIIDKAKQANIPVVFFNKEPLPEDMKKWDKVYYVGAKAEQSGILQGQIMADYWKAHPEADKNHDGVMQYVMLMGKPGHQDAILRTQYSIQTVKDAGIKVQELAKDYANCDRVTAHDKMAAWLSSFGDKIEAVFANNDDMALGAIEALKSAGYFTGNKYIPVVGVDATAPGIQAIKDGTLLGTVLNDAKNQAKATFNIAYELAQGITPTKDNIGYDITDGKYVWIPYKKITKDNISDAEQGGSHHHHHH
modifications: ttGGBP182C.8 (affinity-tuning mutant, 182C background (Table 6) with signal peptide replaced with M and GGSHHHHHH at C-terminus)
In series [3], B4 returned an apoTm of 346 K. The Kd in series [2] (setting [5]) stood at 28.7 mM; in series [2] (setting [6]), 44.2 mM. Besides, in series [4], the “S, selectivity = trueKd(galactose)/trueKd(glucose)” value worked out at 5.8.

B5: ttGGBP182C.9: affinity-tuning mutant, 182C background, SEQ ID NO: 103 (protein)
chain: MKQLNIGVAIYKFDNTFMTGVRNAMTAEAQGKAKLNMVDSQNSQPTQNDQVDLFITKKMNALAINPVDRTAAGTIIDKAKQANIPVVFFNREPLPEDMKKWDKVYYVGAKAEQSGILQGQIMADYWKAHPEADKNHDGVMQYVMLMGQPGHQDAILRTQYSIQTVKDAGIKVQELAKDYANCDRVTAHDKMAAWLSSFGDKIEAVFANNDDMALGAIEALKSAGYFTGNKYIPVVGVDATAPGIQAIKDGTLLGTVLNDAKNQAKATFNIAYELAQGITPTKDNIGYDITDGKYVWIPYKKITKDNISDAEQGGSHHHHHH
modifications: ttGGBP182C.9 (affinity-tuning mutant, 182C background (Table 6) with signal peptide replaced with M and GGSHHHHHH at C-terminus)
B5 gave an apoTm in series [3] of 343 K. Also, the Kd in series [2] (setting [5]) worked out at 75.1 mM; in series [2] (setting [6]), 76.4 mM. Further, the “S, selectivity = trueKd(galactose)/trueKd(glucose)” value in series [4] stood at 3.7.

B6: ttGGBP17C.25: affinity-tuning mutant, 17C background, SEQ ID NO: 83 (protein)
chain: MKQLNIGVAIYKFDDTCMTGVRNAMTAEAQGKAKLNMVDSQNSQPTQNDQVDLFITKKMNALAINPVDRTAAGTIIDKAKQANIPVVFFNREPLPEDMKKWDKVYYVGAKAEQSGILQGQIMADYWKAHPEADKNHDGVMQYVMLMGQPGHQDAILRTQYSIQTVKDAGIKVQELAKDYANWDRVTAHDKMAAWLSSFGDKIEAVFANNDDMALGAIEALKSAGYFTGNKYIPVVGVDATAPGIQAIKDGTLLGTVLNDKKNQAKATFNIAYELAQGITPTKDNIGYDITDGKYVWIPYKKITKDNISDAEQGGSHHHHHH
modifications: ttGGBP17C.25 (affinity-tuning mutant, 17C background (Table 6) with signal peptide replaced with M and GGSHHHHHH at C-terminus)
On to B6, for which the Kd in series [2] (setting [9]) stood at 3.2 mM; in series [2] (setting [10]) it was 3.7 mM. Further, the “Type of fluorescence response to glucose” value in series [1] (setting [11]) is recorded as “i (i, intensity increase only)”. For the same molecule, the “Galactose trueKd” value in series [4] (Badan conjugate, monochromatic titration curves, room temperature) was “nb^e”.

B7: ttGGBP182C.6: affinity-tuning mutant, 182C background, SEQ ID NO: 100 (protein)
chain: MKQLNIGVAIYKFDDNFMTGVRNAMTAEAQGKAKLNMVDSQNSQPTQNDQVDLFITKKMNALAINPVDRTAAGTIIDKAKQANIPVVFFNREPLPEDMKKWDKVYYVGAKAEQSGILQGQIMADYWKAHPEADKNHDGVMQYVMLMGQPGHQDAILRTQYSIQTVKDAGIKVQELAKDYANCDRVTAHDKMAAWLSSFGDKIEAVFANNDAMALGAIEALKSAGYFTGNKYIPVVGVDATAPGIQAIKDGTLLGTVLNDAKNQAKATFNIAYELAQGITPTKDNIGYDITDGKYVWIPYKKITKDNISDAEQGGSHHHHHH
modifications: ttGGBP182C.6 (affinity-tuning mutant, 182C background (Table 6) with signal peptide replaced with M and GGSHHHHHH at C-terminus)
The molecule B7 displayed an apoTm in series [3] of 345 K. Further, the values for the Kd in series [2] (setting [5]), in series [2] (setting [6]) and in series [4] (setting [8]) were 21.6 mM, 27.6 mM and 81 mM, respectively. Further, in series [4], the “S, selectivity = trueKd(galactose)/trueKd(glucose)” value is given as 2.9.
